Assay results: patent US20230272049A1 (published 2023)

Target: T1, HPV16 E7 peptide on HLA-A*02:01 (human)
T1 peptide: YMLDLQPET
Experiment: multimer staining

B1: E7-11-455 (TCR, V domains shown)
Valpha: QKEVEQDPGPLSVPEGAIVSLNCTYSNSAFQYFMWYRQYSRKGPELLMYTYSSGNKEDGRFTAQVDKSSKYISLFIRDSQPSDSATYLCAMAGSGNTGKLIFGQGTTLQVKP
Vbeta: DTGVSQDPRHKITKRGQNVTFRCDPISEHNRLYWYRQTLGQGPEFLTYFQNEAQLEKSRLLSDRFSAERPKGSFSTLEIQRTEQGDSAMYLCASSSSTKNIQYFGAGTRLSVL
- binding result: recognises

B2: E7-11-28 (TCR, V domains shown)
Valpha: GQQVMQIPQYQHVQEGEDFTTYCNSSTTLSNIQWYKQRPGGHPVFLIQLVKSGEVKKQKRLTFQFGEAKKNSSLHITATQTTDVGTYFCAGIGSSNTGKLIFGQGTTLQVKP
Vbeta: EPEVTQTPSHQVTQMGQEVILRCVPISNHLYFYWYRQILGQKVEFLVSFYNNEISEKSEIFDDQFSVERPDGSNFTLKIRSTKLEDSAMYFCAITGRVSYEQYFGPGTRLTVT
- binding result: recognises

B3: E7-11-194 (TCR, V domains shown)
Valpha: GQQVMQIPQYQHVQEGEDFTTYCNSSTTLSNIQWYKQRPGGHPVFLIQLVKSGEVKKQKRLTFQFGEAKKNSSLHITATQTTDVGTYFCAGLGSSNTGKLIFGQGTTLQVKP
Vbeta: EPEVTQTPSHQVTQMGQEVILRCVPISNHLYFYWYRQILGQKVEFLVSFYNNEISEKSEIFDDQFSVERPDGSNFTLKIRSTKLEDSAMYFCATTGRASYEQYFGPGTRLTVT
- binding result: recognises

B4: E7-11-176 (TCR, V domains shown)
Valpha: DQQVKQNSPSLSVQEGRISILNCDYTNSMFDYFLWYKKYPAEGPTFLISISSIKDKNEDGRFTVFLNKSAKHLSLHIVPSQPGDSAVYFCAAKNSNSGYALNFGKGTSLLVTP
Vbeta: not shown
- binding result: recognises
